From US12662540B2, “Compositions and methods for inhibition of MICA/B shedding” (DANA-FARBER CANCER INSTITUTE, INC., priority 2017, dated 2026)
“Also recorded” adds a separate entry of the source.

Legend:
[1] = tested on: A375 melanoma cell line; experiment: In vitro assay for inhibition of MICA shedding, A375 cells (sandwich ELISA of supernatant); type: cell-based, human; conditions: A375 cells treated for 24 hours
Protocol: Tumor cells (5×10^4 or 1×10^5 per well, depending on the cell line) were cultured for 24 to 72 hours in 96-well plates (flat-bottom plates for adherent cell lines, U-bottom plates for suspension cell lines). Human and murine cell lines were cultivated in RPMI-1640 or DMEM media, respectively, supplemented with 10% fetal bovine serum (FBS), 1× Glutamax® (Gibco), and 1× Penicillin and Streptomycin (Gibco). MICA or control antibodies were added at different concentrations, and shed MICA/B was then detected in supernatants by ELISA using the Human MICA ELISA kit (Ab59569, Abcam) or Human MICB DuoSet ELISA kit (DY1599, R&D Systems), using the procedures recommended by the manufacturers. For both assays, standard curves were generated using recombinant MICA*008 or MICB*005 extracellular domain proteins that had been expressed using the Baculovirus system.

[2] = tested on: B16F10-MICA cells; experiment: B16F10 metastasis model in immunocompetent mice; type: in vivo, C57BL/6 mice
Protocol: The B16F10 cells were transduced with the luciferase-based lentiviral vector to express MICA. B16F10-MICA cells (5×10^5) were injected intravenously into C57BL/6 mice through the tail vein. Fewer tumor cells (4×10^5) were injected into NK cell-deficient mice given that the absence of NK cells results in a very large number of metastases. 7C6 or isotype control antibodies (MPC-11 or C1184, BioXcell, which have mIgG2b and mIgG2a isotypes, respectively) were administered intraperitoneally on days 1, 2, 7 and 10 at a dose of 200 μg per mouse. Antibody blockade and depletion were performed as described previously (24). For antibody-based depletion of CD8 T cells or NK cells, 100 μg per mouse of anti-CD8 (5358, BioXcell), anti-NK1.1 (PK136, BioXcell), and anti-asialo(as)GM1 (Wako Chemicals) were given on days −1, 0, and 7. For antibody blockade, anti-NKG2D (HMG2D, BioXcell) or control IgG (MOPC-21) were given at 200 μg per mouse on days −1, 0, 5, 7 and 10. Blood samples were collected at multiple time points by retro-orbital bleeding under isoflurane anesthesia. Mice were euthanized by CO2 inhalation, lungs were perfused with PBS and fixed in formalin solution, and the number of superficial metastases was counted under a stereomicroscope. Histology was performed by the Rodent Histopathology Core of the Dana-Farber/Harvard Cancer Center using lungs that had not been perfused with PBS.
Macrophages were depleted by intravenous injection of 0.2 ml clodronate liposomes (Encapsula NanoSciences LLC). In the humanized and B16F10-MICA metastasis models, 0.2 ml of clodronate liposomes or control liposomes were injected i.v. (on the same day of tumor cell inoculation and then once weekly).

[3] = tested on: human NK cells; experiment: Intracellular interferon-γ production by NK cells co-cultured with tumor cells; type: cell-based; conditions: co-culture with tumor cells, antibody 10 μg/ml
Protocol: NK cells were co-cultured for 6 hours at a ratio of 5:1 with tumor cells in the presence of Brefeldin-A (Biolegend). After the incubation time, Fc receptors were blocked, cells stained with NK cell markers, stained further with a dead cell marker (Zombie Yellow, Biolegend), and subsequently processed for intracellular interferon-γ labeling. Briefly, cells were fixed with BD Cytofix/Cytoperm™ Fixation and Permeabilization Solution (BD Pharmingen), permeabilized with Permeabilization Wash Buffer (Biolegend), and stained with APC-conjugated anti-human interferon-γ (4S.B3, Biolegend) or appropriate isotype control. Fluorescence spectra were acquired using a LSR Fortessa flow cytometer and analyzed by FlowJo.

[4] = tested on: MICA α3 domain; experiment: ELISA for antibody binding to immobilized MICA α3 domain; set-up: species or system human; conditions: fluorescence-based ELISA, immobilized antigen
Protocol: ELISA experiments were performed in DELFIA® 96-well plates (Perkin Elmer) or in Nunc Maxisorp 96-wells plates (Thermo Scientific). Wells were coated with antigens by overnight incubation at 4° C. using 100 ng of protein in 100 μl of carbonate buffer, […]. Plates were subsequently washed with 1× Tris-buffered saline-Tween buffer and incubated for 2 hours with 2% bovine serum albumin (BSA) in phosphate buffered saline (PBS), pH 7.4, or DELFIA® Assay Buffer (Perkin Elmer) at room temperature. MICA antibodies were used at 1 μg/ml, unless indicated otherwise. Isotype controls were MPC-11 (mIgG2b) and MOPC-21 (mIgG1), but only MPC-11 is shown in the figures, given that no differences were observed between these controls. Human isotype control was a recombinant human IgG1 antibody (BE0096, BioXcell). Biotinylated goat anti-mouse IgG (Poly4053—Biolegend) was used as the secondary antibody which was followed by streptavidin-Europium (Perkin Elmer) and DELFIA® Enhancement Solution (Perkin Elmer). Europium fluorescence was quantified using an EnVision® microplate reader (Perkin Elmer). The HRP-conjugated secondary antibodies were Novex® Goat anti-human IgG (A24470, Life Technologies), Goat anti-mouse IgG1 (1070-05), IgG2a (1080-08), IgG2b (1090-05), and IgG3 (1100-05), and Goat anti-mouse IgG (31430, Thermo Scientific). […] Absorbance was read at 450 nm.

B1: 7C6: monoclonal antibody from mice immunized with recombinant MICA α3 domain; parental mIgG2b; VH SEQ ID NO: 7, VL SEQ ID NO: 8 (antibody)
VH: QIQLVQSGPELKKPGETVKVSCKASGYMFTNYAMNWVKQAPEKGLKWMGWINTHTGDPTYADDFKGRIAFSLETSASTAYLQINNLKNEDTATYFCVRTYGNYAMDYWGQGTSVTVSSAKTTAPSVYPLAPVCGDTTGSSVTLGCLVKGYFPEPVTLTWNSGSLSSGVHTFPAVLQSDLYTLSSSVTVTSS
VL: DIQMTQTTSSLSASLGDRVTISCSASQDISNYLNWYQQKPDGTVKLLIYDTSILHLGVPSRFSGSGSGTDYSLTISNLEPEDIATYYCQQYSKFPRTFGGGTTLEIK
modifications: mAb 7C6 heavy chain amino acid sequence; mAb 7C6 light chain amino acid sequence
MICA shedding (shed MICA released into supernatant) [1]: inhibit MICA release into the supernatant | shed MICA in serum ([2]; B16F10-MICA i.v. in C57BL/6 mice): undetectable; also recorded: reduced shed MICA in the sera | therapeutic activity against lung metastases after NK cell or CD8 T cell depletion ([2]; anti-asGM1, anti-NK1.1 or anti-CD8β): NK cells, but not CD8 T cells, were essential for the therapeutic activity | therapeutic activity in Prf1−/− and Ifng−/− mice ([2]; lung metastases day 14): therapeutic efficacy was lost in perforin (Prf1) but not IFNγ (Ifng) deficient mice; also recorded: Perforin but not interferon-γ expression is required for therapeutic activity | IFNγ (cytokine) production by human NK cells [3]: increases NK cell cytotoxicity and cytokine production | binding to MICA α3 domain [4]: bound to the MICA α3 domain
